The values below come from the supplement of paper PMC9112550, “Optimization of the antimicrobial peptide Bac7 by deep mutational scanning” (BMC Biology, 2022).
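Note: peptides expressed intracellularly from a pBAD plasmid library in pooled LB shake-flask culture, induced with 0.3% L-arabinose, DNA abundance read by NGS, three biological replicates, DESeq2 with apeglm shrinkage.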

The subject of the data set is Escherichia coli TOP10. The data set is described as follows: shrunken log2 fold change of peptide-encoding DNA abundance (4.5 h post-induction vs induction); higher = less antimicrobial activity (less host growth inhibition). To be noted: time post-induction: 4.5 h; library: site-saturation at positions 5, 18, 19, 20.
On to RRIRNRPPRLPRPRPRPPRKPRP, for which the “shrunken log2 fold change” value came out at 0.523. To RRIRHRPPRLPRPRPRPVWAPRP belongs 0.193; to RRIRMRPPRLPRPRPRPTMTPRP, 2.3; to RRIRGRPPRLPRPRPRPNHQPRP, 0.0643. To RRIRPRPPRLPRPRPRPGAWPRP belongs 0.132; to RRIRERPPRLPRPRPRPVCTPRP, -0.147; to RRIRERPPRLPRPRPRPITWPRP, 0.0224. Consider RRIRHRPPRLPRPRPRPPWPPRP, for which the “shrunken log2 fold change” value was determined as 0.504. Consider RRIRERPPRLPRPRPRPWKPPRP, for which the “shrunken log2 fold change” value is -0.00455.

As for RRIRKRPPRLPRPRPRPPADPRP, the “shrunken log2 fold change” value was found to be 0.563. To RRIRSRPPRLPRPRPRPFAMPRP belongs -0.0258. On to RRIRYRPPRLPRPRPRPAVRPRP, for which the “shrunken log2 fold change” value was -0.0403.

RRIRHRPPRLPRPRPRPPEPPRP: the “shrunken log2 fold change” value stood at 0.113. For the sequence RRIRLRPPRLPRPRPRPCHDPRP, the “shrunken log2 fold change” value was -0.116.

Consider RRIRHRPPRLPRPRPRPQSTPRP, for which the “shrunken log2 fold change” value is -0.395. To RRIRNRPPRLPRPRPRPPNHPRP belongs 0.0878; to RRIRMRPPRLPRPRPRPYANPRP, -0.139; to RRIRYRPPRLPRPRPRPGWFPRP, -0.112. To RRIRHRPPRLPRPRPRPVPPPRP belongs 0.244; to RRIRGRPPRLPRPRPRPRMTPRP, 1.26. As for RRIRNRPPRLPRPRPRPGSDPRP, the “shrunken log2 fold change” value was -0.0348.

In the case of RRIRVRPPRLPRPRPRPEQEPRP, the “shrunken log2 fold change” value was -0.0189. RRIRARPPRLPRPRPRPLGHPRP: the “shrunken log2 fold change” value came out at 0.134.

Take RRIRHRPPRLPRPRPRPLHAPRP: the “shrunken log2 fold change” value was determined as 0.297. For RRIRTRPPRLPRPRPRPMGNPRP, the “shrunken log2 fold change” value is -0.0115. To RRIRPRPPRLPRPRPRPADLPRP belongs 0.0166. As for RRIRSRPPRLPRPRPRPMQCPRP, the “shrunken log2 fold change” value was -0.0018.

With RRIRIRPPRLPRPRPRPAISPRP, the “shrunken log2 fold change” value was found to be 0.0106. To RRIRHRPPRLPRPRPRPVMVPRP belongs -2.78e-05; to RRIRWRPPRLPRPRPRPQAEPRP, 0.0113; to RRIRDRPPRLPRPRPRPNKLPRP, -0.277. To RRIRLRPPRLPRPRPRPVMGPRP belongs 0.256; to RRIRYRPPRLPRPRPRPYPDPRP, -0.0152; to RRIRMRPPRLPRPRPRPKENPRP, 1.9. Consider RRIRLRPPRLPRPRPRPPEGPRP, for which the “shrunken log2 fold change” value came out at 0.662. To RRIRARPPRLPRPRPRPMFQPRP belongs -0.0957; to RRIRTRPPRLPRPRPRPCFSPRP, -0.3; to RRIRFRPPRLPRPRPRPGSGPRP, 0.161. In the case of RRIRIRPPRLPRPRPRPKPNPRP, the “shrunken log2 fold change” value is -0.105. To RRIRQRPPRLPRPRPRPWQIPRP belongs -0.0838.

RRIRDRPPRLPRPRPRPTRYPRP: the “shrunken log2 fold change” value came out at 0.317. To RRIRERPPRLPRPRPRPNICPRP belongs -0.523; to RRIRKRPPRLPRPRPRPKVIPRP, 0.156. Turning to RRIRYRPPRLPRPRPRPLTKPRP, the “shrunken log2 fold change” value was -0.281. To RRIRARPPRLPRPRPRPGTCPRP belongs 0.153. To RRIRFRPPRLPRPRPRPHQFPRP belongs -0.343; to RRIRQRPPRLPRPRPRPHHAPRP, -0.00332. As for RRIRSRPPRLPRPRPRPQVCPRP, the “shrunken log2 fold change” value is -0.0852. On to RRIRRRPPRLPRPRPRPMTKPRP, for which the “shrunken log2 fold change” value amounted to 0.0629.

Take RRIRDRPPRLPRPRPRPTPLPRP: the “shrunken log2 fold change” value came out at 0.484. With RRIRRRPPRLPRPRPRPNCYPRP, the “shrunken log2 fold change” value is -0.0134. To RRIRERPPRLPRPRPRPLESPRP belongs -0.0735. For the sequence RRIRTRPPRLPRPRPRPWMMPRP, the “shrunken log2 fold change” value was 0.0505. As for RRIRGRPPRLPRPRPRPYWKPRP, the “shrunken log2 fold change” value was -0.0176. In the case of RRIRWRPPRLPRPRPRPNRLPRP, the “shrunken log2 fold change” value was -0.0743.

Take RRIRMRPPRLPRPRPRPDLKPRP: the “shrunken log2 fold change” value stood at 0.751. As to RRIRFRPPRLPRPRPRPRQMPRP, the “shrunken log2 fold change” value was -0.0877. To RRIRRRPPRLPRPRPRPNYQPRP belongs -0.263. In the case of RRIRVRPPRLPRPRPRPTGIPRP, the “shrunken log2 fold change” value was -0.115. For RRIRARPPRLPRPRPRPIEMPRP, the “shrunken log2 fold change” value is 0.563. As to RRIRHRPPRLPRPRPRPAFVPRP, the “shrunken log2 fold change” value amounted to 0.113. As for RRIRVRPPRLPRPRPRPSGVPRP, the “shrunken log2 fold change” value turned out to be 0.0069. To RRIRCRPPRLPRPRPRPWGWPRP belongs 0.221; to RRIRHRPPRLPRPRPRPWKMPRP, 0.00115.

On to RRIRARPPRLPRPRPRPSVPPRP, for which the “shrunken log2 fold change” value was -0.179. To RRIRTRPPRLPRPRPRPETYPRP belongs -0.275; to RRIRDRPPRLPRPRPRPGLIPRP, 0.0516; to RRIRMRPPRLPRPRPRPNRSPRP, -0.0367. To RRIRTRPPRLPRPRPRPLVYPRP belongs -0.917.

For the sequence RRIRGRPPRLPRPRPRPNTHPRP, the “shrunken log2 fold change” value was found to be 0.102. As for RRIRQRPPRLPRPRPRPVMNPRP, the “shrunken log2 fold change” value is 0.0954.

RRIRPRPPRLPRPRPRPHNVPRP: the “shrunken log2 fold change” value is -0.104. To RRIRPRPPRLPRPRPRPWHCPRP belongs -0.0956; to RRIRMRPPRLPRPRPRPYMIPRP, -0.00479. For RRIRDRPPRLPRPRPRPTMKPRP, the “shrunken log2 fold change” value stood at 0.192. To RRIRRRPPRLPRPRPRPQGDPRP belongs 0.0133.

For the sequence RRIRGRPPRLPRPRPRPGMDPRP, the “shrunken log2 fold change” value came out at 1.06. On to RRIRSRPPRLPRPRPRPNDLPRP, for which the “shrunken log2 fold change” value was -0.23. To RRIRYRPPRLPRPRPRPFVEPRP belongs -1.17; to RRIRFRPPRLPRPRPRPCYIPRP, -0.158.

RRIRCRPPRLPRPRPRPTPTPRP: the “shrunken log2 fold change” value worked out at 0.982. In the case of RRIRYRPPRLPRPRPRPFHTPRP, the “shrunken log2 fold change” value was -0.128.

In the case of RRIRLRPPRLPRPRPRPSHSPRP, the “shrunken log2 fold change” value is -0.775. RRIRTRPPRLPRPRPRPHLEPRP: the “shrunken log2 fold change” value was -0.0891. Take RRIRQRPPRLPRPRPRPYDTPRP: the “shrunken log2 fold change” value is -0.307. Turning to RRIRKRPPRLPRPRPRPQDGPRP, the “shrunken log2 fold change” value turned out to be 0.013.

In the case of RRIRFRPPRLPRPRPRPHRWPRP, the “shrunken log2 fold change” value was -0.17. For RRIRDRPPRLPRPRPRPFNNPRP, the “shrunken log2 fold change” value is -0.226. On to RRIRSRPPRLPRPRPRPDLSPRP, for which the “shrunken log2 fold change” value stood at 0.101. As to RRIRMRPPRLPRPRPRPERCPRP, the “shrunken log2 fold change” value stood at 0.201.

Turning to RRIRYRPPRLPRPRPRPTWLPRP, the “shrunken log2 fold change” value turned out to be 0.00076. For the sequence RRIRKRPPRLPRPRPRPSWDPRP, the “shrunken log2 fold change” value is -0.164. Turning to RRIRNRPPRLPRPRPRPNWGPRP, the “shrunken log2 fold change” value is -0.0231. To RRIRPRPPRLPRPRPRPEMSPRP belongs 0.147.

As to RRIRHRPPRLPRPRPRPRILPRP, the “shrunken log2 fold change” value was 0.091. For RRIRERPPRLPRPRPRPFEPPRP, the “shrunken log2 fold change” value is -0.195.

With RRIRWRPPRLPRPRPRPSPNPRP, the “shrunken log2 fold change” value came to 0.106. To RRIRHRPPRLPRPRPRPSSGPRP belongs -0.427; to RRIRVRPPRLPRPRPRPCESPRP, -0.374; to RRIRGRPPRLPRPRPRPAKDPRP, 1.84. To RRIRPRPPRLPRPRPRPQMRPRP belongs 0.806; to RRIRDRPPRLPRPRPRPYSLPRP, -0.017; to RRIRTRPPRLPRPRPRPKTQPRP, 0.19. Take RRIRDRPPRLPRPRPRPGEMPRP: the “shrunken log2 fold change” value worked out at 0.163. To RRIRYRPPRLPRPRPRPFFEPRP belongs -0.482; to RRIRERPPRLPRPRPRPMHRPRP, -0.157; to RRIRNRPPRLPRPRPRPWMGPRP, -0.558. For RRIRVRPPRLPRPRPRPIKHPRP, the “shrunken log2 fold change” value was -0.505. Regarding RRIRERPPRLPRPRPRPYNDPRP, the “shrunken log2 fold change” value is 0.0352. For the sequence RRIRPRPPRLPRPRPRPNRWPRP, the “shrunken log2 fold change” value turned out to be 0.106. Turning to RRIRQRPPRLPRPRPRPLTEPRP, the “shrunken log2 fold change” value was -0.22. To RRIRDRPPRLPRPRPRPVQGPRP belongs -0.01; to RRIRSRPPRLPRPRPRPRNWPRP, 0.318.

For the sequence RRIRMRPPRLPRPRPRPFAFPRP, the “shrunken log2 fold change” value was 0.0579. To RRIRNRPPRLPRPRPRPTFRPRP belongs -0.22; to RRIRYRPPRLPRPRPRPGHWPRP, -0.135. Consider RRIRSRPPRLPRPRPRPSGEPRP, for which the “shrunken log2 fold change” value came to 0.406.

Consider RRIRSRPPRLPRPRPRPHNQPRP, for which the “shrunken log2 fold change” value is -0.271. With RRIRPRPPRLPRPRPRPAEEPRP, the “shrunken log2 fold change” value is 0.2. As for RRIRQRPPRLPRPRPRPTRRPRP, the “shrunken log2 fold change” value is 0.556. To RRIRFRPPRLPRPRPRPHMGPRP belongs -0.292; to RRIRTRPPRLPRPRPRPKKQPRP, -0.15. To RRIRPRPPRLPRPRPRPDKVPRP belongs -0.249. To RRIRERPPRLPRPRPRPLQPPRP belongs 0.468. Consider RRIRSRPPRLPRPRPRPNEGPRP, for which the “shrunken log2 fold change” value was -0.0691.
